These results are taken from patent publication US20140072980A1.

Assay [1] addresses IgG1 Fc/Fc* bispecific antibody. The experiment in a line: flow cytometry: antibody displayed on CHO cells by CSCP FcγR, detected with Anti-hFc. Background: In flow cytometry, cells or beads pass a laser one at a time.
Assay [2] has as its target IgG1 Fc/Fc monospecific antibody. The description is as above.

“human FcγRI (from UniProt P12314 16-374) (receptor)”: the Mean Fluorescence Intensity (MFI) amounted to 1800 MFI in assay [1] and 1000 MFI in assay [2].
